Data taken from patent US20250059282A1.

Assays:
[1] = target: Human PD-L2-HIS (human) (UniProt Q9BQ51); test: Octet binning; competitor BiPDL4-12
[2] = target: Human PD-L2-HIS (human) (UniProt Q9BQ51); test: Octet binning; competitor PDL2-21
[3] = target: Human PD-L2-HIS (human) (UniProt Q9BQ51); test: Octet binning; competitor BiPDL4-13
[4] = target: Human PD-L2-HIS (human) (UniProt Q9BQ51); test: Octet binning; competitor PDL2-13 (column 11)
[5] = target: Human PD-L2-HIS (human) (UniProt Q9BQ51); test: Octet binning; competitor 24F.10C12
[6] = target: Human PD-L2-HIS (human) (UniProt Q9BQ51); test: Octet binning; competitor BiPDL4-11
[7] = target: Human PD-L2-HIS (human) (UniProt Q9BQ51); test: Octet binning; competitor BiPDL4-14
[8] = target: Human PD-L2-HIS (human) (UniProt Q9BQ51); test: Octet binning; competitor PDL2-23
[9] = target: Human PD-L2-HIS (human) (UniProt Q9BQ51); test: Octet binning; competitor PDL2-13 (column 7)
[10] = target: Human PD-L2-HIS (human) (UniProt Q9BQ51); test: Octet binning; competitor MIH18
[11] = target: PD-1 (on Jurkat T Cell)
[12] = target: PD-1 (on Jurkat T Cell); remark: listed apart in the source

Chain of Human PD-L2-HIS (human) (Q9BQ51 20-220): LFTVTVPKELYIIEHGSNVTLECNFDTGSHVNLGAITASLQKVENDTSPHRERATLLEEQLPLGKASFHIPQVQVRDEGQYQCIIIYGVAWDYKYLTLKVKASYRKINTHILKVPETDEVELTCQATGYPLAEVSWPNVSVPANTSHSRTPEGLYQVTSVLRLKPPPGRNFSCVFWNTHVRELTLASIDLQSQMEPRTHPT

% of unblocked Ab2 binding signal [1] [%] | % of unblocked Ab2 binding signal [2] [%] | % of unblocked Ab2 binding signal [3] [%] | % of unblocked Ab2 binding signal [4] [%] | % of unblocked Ab2 binding signal [5] [%] | % of unblocked Ab2 binding signal [6] [%] | % of unblocked Ab2 binding signal [7] [%] | % of unblocked Ab2 binding signal [8] [%] | % of unblocked Ab2 binding signal [9] [%] | % of unblocked Ab2 binding signal [10] [%] | EC50 (read off the curve); Luc Activity, Promega CHO-PDL1/PD-L2 dual cells with NFAT-Luc Jurkat T cells [11] [nM] | EC50 (read off the curve); Fold induction of luciferase, Promega: CHO-PD-L1/PD-L2 dual cells with PD-1 Jurkat reporter cells [12] [nM] | Substance
60.6 | 74.7 | 57 | 82.5 | 71.4 | 47.9 | 63.4 | 70.3 | 73.7 | 5.73 | – | – | MIH18 (antibody)
– | – | – | – | – | – | – | – | – | – | 2 | 0.7 | Keytruda (antibody)
57.5 | 5.24 | 56.9 | 6.3 | 4.99 | 50.5 | 62.8 | 5.98 | 7.11 | 63.8 | – | – | 24F.10C12 (antibody)
